Source: the supplement of paper PMC5998384

Legend:
[1] = system: HeLa Kyoto; assay: solubility in G1/S (NP-40 vs SDS abundance) (log2 ratio); higher = more soluble; details: cell cycle stage: G1/S
[2] = system: HeLa Kyoto; assay: melting temperature (median over replicates), in situ; higher = more thermally stable
[3] = system: HeLa Kyoto; assay: solubility change mitosis vs G1/S (difference of NP-40 vs SDS log2 ratios) (log2 ratio difference); higher = more soluble in mitosis
[4] = system: HeLa Kyoto; assay: thermal stability score vs G1/S (z-score of summed log2 fold changes over temperatures); higher = more thermally stable than in G1/S
[5] = cell cycle stage: early G1 (4.5 h after nocodazole release)
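For melting temperature (median over replicates), in situ in this document: HeLa Kyoto cells synchronized by double thymidine or nocodazole block, proteins quantified by TMT10plex mass spectrometry, three independent biological replicates.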
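For solubility change mitosis vs G1/S (difference of NP-40 vs SDS log2 ratios) in this document: synchronized HeLa Kyoto cells (double thymidine block for G1/S, nocodazole release for mitosis), protein amounts in NP-40 versus SDS lysates quantified by mass spectrometry, three biological replicates.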
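For solubility in G1/S (NP-40 vs SDS abundance) in this document: HeLa Kyoto cells arrested at G1/S by double thymidine block, proteins quantified by TMT10plex mass spectrometry in mild NP-40 versus SDS extracts, three biological replicates.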
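For thermal stability score vs G1/S (z-score of summed log2 fold changes over temperatures) in this document: synchronized HeLa Kyoto cells, proteins quantified by TMT10plex mass spectrometry, three biological replicates, mitosis taken 0.5 h after nocodazole release, G1/S directly after double thymidine block.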

Sequence	solubility in G1/S (log2) [1]	melting temperature ([2]; cell cycle stage: G1/S) [°C]	melting temperature ([2]; cell cycle stage: mitosis) [°C]	solubility change mitosis (log2) [3]	thermal stability score [4, 5]	thermal stability score ([4]; cell cycle stage: mitosis)
MCGIWALFGSDDCLSVQCLSAMKIAHRGPDAFRFENVNGYTNCCFGFHRLAVVDPLFGMQPIRVKKYPYLWLCYNGEIYNHKKMQQHFEFEYQTKVDGEIILHLYDKGGIEQTICMLDGVFAFVLLDTANKKVFLGRDTYGVRPLFKAMTEDGFLAVCSEAKGLVTLKHSATPFLKVEPFLPGHYEVLDLKPNGKVASVEMVKYHHCRDVPLHALYDNVEKLFPGFEIETVKNNLRILFNNAVKKRLMTDRRIGCLLSGGLDSSLVAATLLKQLKEAQVQYPLQTFAIGMEDSPDLLAARKVADHIGSEHYEVLFNSEEGIQALDEVIFSLETYDITTVRASVGMYLISKYIRKNTDSVVIFSGEGSDELTQGYIYFHKAPSPEKAEEESERLLRELYLFDVLRADRTTAAHGLELRVPFLDHRFSSYYLSLPPEMRIPKNGIEKHLLRETFEDSNLIPKEILWRPKEAFSDGITSVKNSWFKILQEYVEHQVDDAMMANAAQKFPFNTPKTKEGYYYRQVFERHYPGRADWLSHYWMPKWINATDPSARTLTHYKSAVKA [ASNS]	-0.142	52.8	53.1	-0.21	2.34	-0.215
MCQVGEDYGEPAPEEPPPAPRPSREQKCVKCKEAQPVVVIRAGDAFCRDCFKAFYVHKFRAMLGKNRLIFPGEKVLLAWSGGPSSSSMVWQVLEGLSQDSAKRLRFVAGVIFVDEGAACGQSLEERSKTLAEVKPILQATGFPWHVVALEEVFSLPPSVLWCSAQELVGSEGAYKAAVDSFLQQQHVLGAGGGPGPTQGEEQPPQPPLDPQNLARPPAPAQTEALSQLFCSVRTLTAKEELLQTLRTHLILHMARAHGYSKVMTGDSCTRLAIKLMTNLALGRGAFLAWDTGFSDERHGDVVVVRPMRDHTLKEVAFYNRLFSVPSVFTPAVDTKAPEKASIHRLMEAFILRLQTQFPSTVSTVYRTSEKLVKGPRDGPAAGDSGPRCLLCMCALDVDAADSATAFGAQTSSRLSQMQSPIPLTETRTPPGPCCSPGVGWAQRCGQGACRREDPQACIEEQLCYSCRVNMKDLPSLDPLPPYILAEAQLRTQRAWGLQEIRDCLIEDSDDEAGQS [CTU2]	0.28	53.4	52.8	-0.166	-0.721	-0.101
MDAALKRSRSEEPAEILPPARDEEEEEEEGMEQGLEEEEEVDPRIQGELEKLNQSTDDINRRETELEDARQKFRSVLVEATVKLDELVKKIGKAVEDSKPYWEARRVARQAQLEAQKATQDFQRATEVLRAAKETISLAEQRLLEDDKRQFDSAWQEMLNHATQRVMEAEQTKTRSELVHKETAARYNAAMGRMRQLEKKLKRAINKSKPYFELKAKYYVQLEQLKKTVDDLQAKLTLAKGEYKMALKNLEMISDEIHERRRSSAMGPRGCGVGAEGSSTSVEDLPGSKPEPDAISVASEAFEDDSCSNFVSEDDSETQSVSSFSSGPTSPSEMPDQFPAVVRPGSLDLPSPVSLSEFGMMFPVLGPRSECSGASSPECEVERGDRAEGAENKTSDKANNNRGLSSSSGSGGSSKSQSSTSPEGQALENRMKQLSLQCSKGRDGIIADIKMVQIG [SH3BP5]	0.134	53.2	52	-0.0509	-1.02	-0.824
MDALKSAGRALIRSPSLAKQSWGGGGRHRKLPENWTDTRETLLEGMLFSLKYLGMTLVEQPKGEELSAAAIKRIVATAKASGKKLQKVTLKVSPRGIILTDNLTNQLIENVSIYRISYCTADKMHDKVFAYIAQSQHNQSLECHAFLCTKRKMAQAVTLTVAQAFKVAFEFWQVSKEEKEKRDKASQEGGDVLGARQDCTPSLKSLVATGNLLDLEETAKAPLSTVSANTTNMDEVPRPQALSGSSVVWELDDGLDEAFSRLAQSRTNPQVLDTGLTAQDMHYAQCLSPVDWDKPDSSGTEQDDLFSF [LDLRAP1]	0.466		50	0.0321	-0.147	0.000284
MDALQLANSAFAVDLFKQLCEKEPLGNVLFSPICLSTSLSLAQVGAKGDTANEIGQVLHFENVKDVPFGFQTVTSDVNKLSSFYSLKLIKRLYVDKSLNLSTEFISSTKRPYAKELETVDFKDKLEETKGQINNSIKDLTDGHFENILADNSVNDQTKILVVNAAYFVGKWMKKFSESETKECPFRVNKTDTKPVQMMNMEATFCMGNIDSINCKIIELPFQNKHLSMFILLPKDVEDESTGLEKIEKQLNSESLSQWTNPSTMANAKVKLSIPKFKVEKMIDPKACLENLGLKHIFSEDTSDFSGMSETKGVALSNVIHKVCLEITEDGGDSIEVPGARILQHKDELNADHPFIYIIRHNKTRNIIFFGKFCSP [SERPINB5]	0.403	52.3	52.6	-0.146	1.51	0.174
MDARWWAVVVLAAFPSLGAGGETPEAPPESWTQLWFFRFVVNAAGYASFMVPGYLLVQYFRRKNYLETGRGLCFPLVKACVFGNEPKASDEVPLAPRTEAAETTPMWQALKLLFCATGLQVSYLTWGVLQERVMTRSYGATATSPGERFTDSQFLVLMNRVLALIVAGLSCVLCKQPRHGAPMYRYSFASLSNVLSSWCQYEALKFVSFPTQVLAKASKVIPVMLMGKLVSRRSYEHWEYLTATLISIGVSMFLLSSGPEPRSSPATTLSGLILLAGYIAFDSFTSNWQDALFAYKMSSVQMMFGVNFFSCLFTVGSLLEQGALLEGTRFMGRHSEFAAHALLLSICSACGQLFIFYTIGQFGAAVFTIIMTLRQAFAILLSCLLYGHTVTVVGGLGVAVVFAALLLRVYARGRLKQRGKKAVPVESPVQKV [SLC35B2]	0.112	54.9	56.3	-0.177	-0.147	1.08
MDCSLVRTLVHRYCAGEENWVDSRTIYVGHREPPPGAEAYIPQRYPDNRIVSSKYTFWNFIPKNLFEQFRRVANFYFLIIFLVQLIIDTPTSPVTSGLPLFFVITVTAIKQGYEDWLRHKADNAMNQCPVHFIQHGKLVRKQSRKLRVGDIVMVKEDETFPCDLIFLSSNRGDGTCHVTTASLDGESSHKTHYAVQDTKGFHTEEDIGGLHATIECEQPQPDLYKFVGRINVYSDLNDPVVRPLGSENLLLRGATLKNTEKIFGVAIYTGMETKMALNYQSKSQKRSAVEKSMNAFLIVYLCILISKALINTVLKYMWQSEPFRDEPWYNQKTESERQRNLFLKAFTDFLAFMVLFNYIIPVSMYVTVEMQKFLGSYFITWDEDMFDEETGEGPLVNTSDLNEELGQVEYIFTDKTGTLTENNMEFKECCIEGHVYVPHVICNGQVLPESSGIDMIDSSPSVNGREREELFFRALCLCHTVQVKDDDSVDGPRKSPDGGKSCVYISSSPDEVALVEGVQRLGFTYLRLKDNYMEILNRENHIERFELLEILSFDSVRRRMSVIVKSATGEIYLFCKGADSSIFPRVIEGKVDQIRARVERNAVEGLRTLCVAYKRLIQEEYEGICKLLQAAKVALQDREKKLAEAYEQIEKDLTLLGATAVEDRLQEKAADTIEALQKAGIKVWVLTGDKMETAAATCYACKLFRRNTQLLELTTKRIEEQSLHDVLFELSKTVLRHSGSLTRDNLSGLSADMQDYGLIIDGAALSLIMKPREDGSSGNYRELFLEICRSCSAVLCCRMAPLQKAQIVKLIKFSKEHPITLAIGDGANDVSMILEAHVGIGVIGKEGRQAARNSDYAIPKFKHLKKMLLVHGHFYYIRISELVQYFFYKNVCFIFPQFLYQFFCGFSQQTLYDTAYLTLYNISFTSLPILLYSLMEQHVGIDVLKRDPTLYRDVAKNALLRWRVFIYWTLLGLFDALVFFFGAYFVFENTTVTSNGQIFGNWTFGTLVFTVMVFTVTLKLALDTHYWTWINHFVIWGSLLFYVVFSLLWGGVIWPFLNYQRMYYVFIQMLSSGPAWLAIVLLVTISLLPDVLKKVLCRQLWPTATERVQTKSQCLSVEQSTIFMLSQTSSSLSF [ATP11A]	-0.526	53.8	53.8	0.163	-1.06	-0.922
MDDFERRRELRRQKREEMRLEAERIAYQRNDDDEEEAARERRRRARQERLRQKQEEESLGQVTDQVEVNAQNSVPDEEAKTTTTNTQVEGDDEAAFLERLARREERRQKRLQEALERQKEFDPTITDASLSLPSRRMQNDTAENETTEKEEKSESRQERYEIEETETVTKSYQKNDWRDAEENKKEDKEKEEEEEEKPKRGSIGENQVEVMVEEKTTESQEETVVMSLKNGQISSEEPKQEEEREQGSDEISHHEKMEEEDKERAEAERARLEAEERERIKAEQDKKIADERARIEAEEKAAAQERERREAEERERMREEEKRAAEERQRIKEEEKRAAEERQRIKEEEKRAAEERQRIKEEEKRAAEERQRARAEEEEKAKVEEQKRNKQLEEKKHAMQETKIKGEKVEQKIEGKWVNEKKAQEDKLQTAVLKKQGEEKGTKVQAKREKLQEDKPTFKKEEIKDEKIKKDKEPKEEVKSFMDRKKGFTEVKSQNGEFMTHKLKHTENTFSRPGGRASVDTKEAEGAPQVEAGKRLEELRRRRGETESEEFEKLKQKQQEAALELEELKKKREERRKVLEEEEQRRKQEEADRKLREEEEKRRLKEEIERRRAEAAEKRQKMPEDGLSDDKKPFKCFTPKGSSLKIEERAEFLNKSVQKSSGVKSTHQAAIVSKIDSRLEQYTSAIEGTKSAKPTKPAASDLPVPAEGVRNIKSMWEKGNVFSSPTAAGTPNKETAGLKVGVSSRINEWLTKTPDGNKSPAPKPSDLRPGDVSSKRNLWEKQSVDKVTSPTKV [CALD1]	0.0624	57.1	57.1	0.119	0.295	-2.2
MDDSEVESTASILASVKEQEAQFEKLTRALEEERRHVSAQLERVRVSPQDANPLMANGTLTRRHQNGRFVGDADLERQKFSDLKLNGPQDHSHLLYSTIPRMQEPGQIVETYTEEDPEGAMSVVSVETSDDGTTRRTETTVKKVVKTVTTRTVQPVAMGPDGLPVDASSVSNNYIQTLGRDFRKNGNGGPGPYVGQAGTATLPRNFHYPPDGYSRHYEDGYPGGSDNYGSLSRVTRIEERYRPSMEGYRAPSRQDVYGPQPQVRVGGSSVDLHRFHPEPYGLEDDQRSMGYDDLDYGMMSDYGTARRTGTPSDPRRRLRSYEDMIGEEVPSDQYYWAPLAQHERGSLASLDSLRKGGPPPPNWRQPELPEVIAMLGFRLDAVKSNAAAYLQHLCYRNDKVKTDVRKLKGIPVLVGLLDHPKKEVHLGACGALKNISFGRDQDNKIAIKNCDGVPALVRLLRKARDMDLTEVITGTLWNLSSHDSIKMEIVDHALHALTDEVIIPHSGWEREPNEDCKPRHIEWESVLTNTAGCLRNVSSERSEARRKLRECDGLVDALIFIVQAEIGQKDSDSKLVENCVCLLRNLSYQVHREIPQAERYQEAAPNVANNTGPHAASCFGAKKGKDEWFSRGKKPIEDPANDTVDFPKRTSPARGYELLFQPEVVRIYISLLKESKTPAILEASAGAIQNLCAGRWTYGRYIRSALRQEKALSAIADLLTNEHERVVKAASGALRNLAVDARNKELIGKHAIPNLVKNLPGGQQNSSWNFSEDTVISILNTINEVIAENLEAAKKLRETQGIEKLVLINKSGNRSEKEVRAAALVLQTIWGYKELRKPLEKEGWKKSDFQVNLNNASRSQSSHSYDDSTLPLIDRNQKSDKKPDREEIQMSNMGSNTKSLDNNYSTPNERGDHNRTLDRSGDLGDMEPLKGTTPLMQDEGQESLEEELDVLVLDDEGGQVSYPSMQKI [CTNND1]	0.228	48.1	48	-0.0563	-0.443	1.3
MDEAVGDLKQALPCVAESPTVHVEVHQRGSSTAKKEDINLSVRKLLNRHNIVFGDYTWTEFDEPFLTRNVQSVSIIDTELKVKDSQPIDLSACTVALHIFQLNEDGPSSENLEEETENIIAANHWVLPAAEFHGLWDSLVYDVEVKSHLLDYVMTTLLFSDKNVNSNLITWNRVVLLHGPPGTGKTSLCKALAQKLTIRLSSRYRYGQLIEINSHSLFSKWFSESGKLVTKMFQKIQDLIDDKDALVFVLIDEVESLTAARNACRAGTEPSDAIRVVNAVLTQIDQIKRHSNVVILTTSNITEKIDVAFVDRADIKQYIGPPSAAAIFKIYLSCLEELMKCQIIYPRQQLLTLRELEMIGFIENNVSKLSLLLNDISRKSEGLSGRVLRKLPFLAHALYVQAPTVTIEGFLQALSLAVDKQFEERKKLAAYI [TRIP13]	-0.0812	50.9	51.3	-0.116	3.83	2.94
